Measured values from the Human Domainome abundance scans (Beltran et al. 2025).
± gives the uncertainty stated by the source.

B1: Intersectin-2, residues 1129 to 1183; numbered along this chain, Q9NZM3 (parent)
chain: VCQVIAMYDYAANNEDELSFSKGQLINVMNKDDPDWWQGEINGVTGLFPSNYVKM

Variants of: B1
Assay: abundance fitness (aPCA) (normalised: wild type 0, dead -1); higher = more abundant; growth selection in yeast, the domain comes from the species named
Conditions: Homo sapiens

First: VCQVIAMYDYAANNEDELSFSKGQLINVMNKDDPDWIQGEINGVTGLFPSNYVKM
Second: VCQVIAMYDYAANNEDELSFSKGQLINVMNKDDPDWEQGEINGVTGLFPSNYVKM
The abundance fitness of the first is higher: -0.615 ± 0.095 for the first, -0.928 ± 0.071 for the second.

First: VCQVIAMYDYAANNEDELSFSKGQLINVMNKDDPDWFQGEINGVTGLFPSNYVKM
Second: VCQVIAMYDYAANNEDELSFSKGQLINVMNKDDPDWNQGEINGVTGLFPSNYVKM
The abundance fitness of the first is higher: -0.156 ± 0.037 for the first, -0.771 ± 0.12 for the second.

Compared with VCQVIAMYDYAANNEDELSFSKGQLINVMNKDDPDWLQGEINGVTGLFPSNYVKM, VCQVIAMYDYAANNEDELSFSKGQLINVMNKDDPDWAQGEINGVTGLFPSNYVKM is lower in abundance fitness: -0.384 ± 0.03 for the first, -0.857 ± 0.099 for the second.

First: VCQVIAMYDYAANNEDELSFSKGQLINVMNKDDPDWCQGEINGVTGLFPSNYVKM
Second: VCQVIAMYDYAANNEDELSFSKGQLINVMNKDDPDWGQGEINGVTGLFPSNYVKM
The abundance fitness of the first is higher: -0.516 ± 0.041 for the first, -0.826 ± 0.043 for the second.

Compared with VCQVIAMYDYAANNEDELSFSKGQLINVMNKDDPDWKQGEINGVTGLFPSNYVKM, VCQVIAMYDYAANNEDELSFSKGQLINVMNKDDPDWQQGEINGVTGLFPSNYVKM is higher in abundance fitness: -1.03 ± 0.095 for the first, -0.699 ± 0.1 for the second.

Compared with VCQVIAMYDYAANNEDELSFSKGQLINVMNKDDPDWMQGEINGVTGLFPSNYVKM, VCQVIAMYDYAANNEDELSFSKGQLINVMNKDDPDWTQGEINGVTGLFPSNYVKM is lower in abundance fitness: -0.283 ± 0.061 for the first, -0.854 ± 0.08 for the second.

Compared with VCQVIAMYDYAANNEDELSFSKGQLINVMNKDDPDWRQGEINGVTGLFPSNYVKM, VCQVIAMYDYAANNEDELSFSKGQLINVMNKDDPDWPQGEINGVTGLFPSNYVKM is higher in abundance fitness: -0.787 ± 0.058 for the first, -0.582 ± 0.045 for the second.

VCQVIAMYDYAANNEDELSFSKGQLINVMNKDDPDWDQGEINGVTGLFPSNYVKM and VCQVIAMYDYAANNEDELSFSKGQLINVMNKDDPDWVQGEINGVTGLFPSNYVKM are within error of each other in abundance fitness: -0.865 ± 0.18 for the first, -0.78 ± 0.061 for the second.

Going from VCQVIAMYDYAANNEDELSFSKGQLINVMNKDDPDWSQGEINGVTGLFPSNYVKM to VCQVIAMYDYAANNEDELSFSKGQLINVMNKDDPDWWQGNINGVTGLFPSNYVKM, the abundance fitness rises from -0.805 ± 0.064 to -0.143 ± 0.063.

VCQVIAMYDYAANNEDELSFSKGQLINVMNKDDPDWWQGFINGVTGLFPSNYVKM and VCQVIAMYDYAANNEDELSFSKGQLINVMNKDDPDWWQGYINGVTGLFPSNYVKM are within error of each other in abundance fitness: -0.142 ± 0.056 for the first, -0.176 ± 0.06 for the second.

VCQVIAMYDYAANNEDELSFSKGQLINVMNKDDPDWWQGRINGVTGLFPSNYVKM and VCQVIAMYDYAANNEDELSFSKGQLINVMNKDDPDWWQGSINGVTGLFPSNYVKM are within error of each other in abundance fitness: -0.059 ± 0.04 for the first, 0.003 ± 0.036 for the second.

VCQVIAMYDYAANNEDELSFSKGQLINVMNKDDPDWWQGDINGVTGLFPSNYVKM and VCQVIAMYDYAANNEDELSFSKGQLINVMNKDDPDWWQGMINGVTGLFPSNYVKM are within error of each other in abundance fitness: -0.045 ± 0.046 for the first, -0.08 ± 0.058 for the second.

Going from VCQVIAMYDYAANNEDELSFSKGQLINVMNKDDPDWWQGPINGVTGLFPSNYVKM to VCQVIAMYDYAANNEDELSFSKGQLINVMNKDDPDWWQGKINGVTGLFPSNYVKM, the abundance fitness rises from -0.963 ± 0.14 to -0.037 ± 0.06.

VCQVIAMYDYAANNEDELSFSKGQLINVMNKDDPDWWQGAINGVTGLFPSNYVKM and VCQVIAMYDYAANNEDELSFSKGQLINVMNKDDPDWWQGCINGVTGLFPSNYVKM are within error of each other in abundance fitness: -0.055 ± 0.031 for the first, -0.037 ± 0.044 for the second.

VCQVIAMYDYAANNEDELSFSKGQLINVMNKDDPDWWQGWINGVTGLFPSNYVKM and VCQVIAMYDYAANNEDELSFSKGQLINVMNKDDPDWWQGQINGVTGLFPSNYVKM are within error of each other in abundance fitness: -0.15 ± 0.05 for the first, -0.114 ± 0.049 for the second.

VCQVIAMYDYAANNEDELSFSKGQLINVMNKDDPDWWQGHINGVTGLFPSNYVKM and VCQVIAMYDYAANNEDELSFSKGQLINVMNKDDPDWWQGGINGVTGLFPSNYVKM are within error of each other in abundance fitness: -0.08 ± 0.052 for the first, -0.157 ± 0.036 for the second.

Going from VCQVIAMYDYAANNEDELSFSKGQLINVMNKDDPDWWQGENNGVTGLFPSNYVKM to VCQVIAMYDYAANNEDELSFSKGQLINVMNKDDPDWWQGEPNGVTGLFPSNYVKM, the abundance fitness falls from -0.159 ± 0.068 to -1.01 ± 0.088.

Compared with VCQVIAMYDYAANNEDELSFSKGQLINVMNKDDPDWWQGELNGVTGLFPSNYVKM, VCQVIAMYDYAANNEDELSFSKGQLINVMNKDDPDWWQGEDNGVTGLFPSNYVKM is lower in abundance fitness: -0.012 ± 0.037 for the first, -0.624 ± 0.065 for the second.

First: VCQVIAMYDYAANNEDELSFSKGQLINVMNKDDPDWWQGEHNGVTGLFPSNYVKM
Second: VCQVIAMYDYAANNEDELSFSKGQLINVMNKDDPDWWQGECNGVTGLFPSNYVKM
The abundance fitness of the first is higher: 0.022 ± 0.062 for the first, -0.148 ± 0.052 for the second.

VCQVIAMYDYAANNEDELSFSKGQLINVMNKDDPDWWQGEANGVTGLFPSNYVKM and VCQVIAMYDYAANNEDELSFSKGQLINVMNKDDPDWWQGEFNGVTGLFPSNYVKM are within error of each other in abundance fitness: 0.016 ± 0.028 for the first, 0.079 ± 0.053 for the second.

First: VCQVIAMYDYAANNEDELSFSKGQLINVMNKDDPDWWQGEMNGVTGLFPSNYVKM
Second: VCQVIAMYDYAANNEDELSFSKGQLINVMNKDDPDWWQGEENGVTGLFPSNYVKM
The abundance fitness of the first is higher: -0.032 ± 0.049 for the first, -0.478 ± 0.07 for the second.

Compared with VCQVIAMYDYAANNEDELSFSKGQLINVMNKDDPDWWQGEKNGVTGLFPSNYVKM, W36G is lower in abundance fitness: -0.094 ± 0.052 for the first, -0.626 ± 0.055 for the second.

VCQVIAMYDYAANNEDELSFSKGQLINVMNKDDPDRWQGEINGVTGLFPSNYVKM and VCQVIAMYDYAANNEDELSFSKGQLINVMNKDDPDYWQGEINGVTGLFPSNYVKM are within error of each other in abundance fitness: -0.019 ± 0.031 for the first, -0.054 ± 0.06 for the second.

Going from VCQVIAMYDYAANNEDELSFSKGQLINVMNKDDPDEWQGEINGVTGLFPSNYVKM to VCQVIAMYDYAANNEDELSFSKGQLINVMNKDDPDDWQGEINGVTGLFPSNYVKM, the abundance fitness falls from -0.108 ± 0.04 to -0.323 ± 0.028.
